Values quoted from earlier work in article PMC3925188.
Values joined by “and” are separate entries in the source; they are usually repeats but may differ in a detail not shown here. Identical values can stand only once.

Biological target: Histone H3K4me3 H3K4me3 (Homo sapiens) (UniProt P68431)

Sequence of KMT2A PHD3 (Q03164 1566-1627): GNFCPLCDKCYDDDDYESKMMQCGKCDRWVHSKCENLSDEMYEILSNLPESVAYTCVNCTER

Kd: 30 µM and 19 µM and 4 µM
Substance: KMT2A PHD3 (from UniProt Q03164)
